Here are results for 1 molecule from PMC3597514.

Assay [1] concerns the target NbSPL6-Yc (N. benthamiana). Kind of assay: split reporter (BiFC, NanoBiT); as a5, but with the non-eliciting p50-Ob-tCFP in place of tCFP-p50-U1; percent of cells as the ratio to the cells seen with tCFP-p50-U1.
Assay [2] deals with NbSPL6-Yc (N. benthamiana). Description: split reporter (BiFC, NanoBiT); as a5, but with tCFP alone in place of tCFP-p50-U1.

B1: gN-Yn (receptor)
chain: MASSSSSSRWSYDVFLSFRGEDTRKTFTSHLYEVLNDKGIKTFQDDKRLEYGATIPGELCKAIEESQFAIVVFSENYATSRWCLNELVKIMECKTRFKQTVIPIFYDVDPSHVRNQKESFAKAFEEHETKYKDDVEGIQRWRIALNEAANLKGSCDNRDKTDADCIRQIVDQISSKLCKISLSYLQNIVGIDTHLEKIESLLEIGINGVRIMGIWGMGGVGKTTIARAIFDTLLGRMDSSYQFDGACFLKDIKENKRGMHSLQNALLSELLREKANYNNEEDGKHQMASRLRSKKVLIVLDDIDNKDHYLEYLAGDLDWFGNGSRIIITTRDKHLIEKNDIIYEVTALPDHESIQLFKQHAFGKEVPNENFEKLSLEVVNYAKGLPLALKVWGSLLHNLRLTEWKSAIEHMKNNSYSGIIDKLKISYDGLEPKQQEMFLDIACFLRGEEKDYILQILESCHIGAEYGLRILIDKSLVFISEYNQVQMHDLIQDMGKYIVNFQKDPGERSRLWLAKEVEEVMSNNTGTMAMEAIWVSSYSSTLRFSNQAVKNMKRLRVFNMGRSSTHYAIDYLPNNLRCFVCTNYPWESFPSTFELKMLVHLQLRHNSLRHLWTETKHLPSLRRIDLSWSKRLTRTPDFTGMPNLEYVNLYQCSNLEEVHHSLGCCSKVIGLYLNDCKSLKRFPCVNVESLEYLGLRSCDSLEKLPEIYGRMKPEIQIHMQGSGIRELPSSIFQYKTHVTKLLLWNMKNLVALPSSICRLKSLVSLSVSGCSKLESLPEEIGDLDNLRVFDASDTLILRPPSSIIRLNKLIILMFRGFKDGVHFEFPPVAEGLHSLEYLNLSYCNLIDGGLPEEIGSLSSLKKLDLSRNNFEHLPSSIAQLGALQSLDLKDCQRLTQLPELPPELNELHVDCHMALKFIHYLVTKRKKLHRVKLDDAHNDTMYNLFAYTMFQNISSMRHDISASDSLSLTVFTGQPYPEKIPSWFHHQGWDSSVSVNLPENWYIPDKFLGFAVCYSRSLIDTTAHLIPVCDDKMSRMTQKLALSECDTESSNYSEWDIHFFFVPFAGLWDTSKANGKTPNDYGIIRLSFSGEEKMYGLRLLYKEGPEVNALLQMRENSNEPTEHSTGIRRTQYNNRTSFYELING
In the case of B1, the percent of cells with citrine fluorescence (with p50-Ob-tCFP) (% of the cells) in assay [1] is 13. The percent of cells with citrine fluorescence (with tCFP alone) (% of the cells) in assay [2] turned out to be 10.
